The record followed here is publication PMC7855534.

The target of this test is C-terminally strep-tagged wild-type GRK5 (human) (UniProt P34947). The experiment in a line: ITC.

pKd: −log10 of the molar value.

Chain of UniProt P34947 (P34947 whole entry): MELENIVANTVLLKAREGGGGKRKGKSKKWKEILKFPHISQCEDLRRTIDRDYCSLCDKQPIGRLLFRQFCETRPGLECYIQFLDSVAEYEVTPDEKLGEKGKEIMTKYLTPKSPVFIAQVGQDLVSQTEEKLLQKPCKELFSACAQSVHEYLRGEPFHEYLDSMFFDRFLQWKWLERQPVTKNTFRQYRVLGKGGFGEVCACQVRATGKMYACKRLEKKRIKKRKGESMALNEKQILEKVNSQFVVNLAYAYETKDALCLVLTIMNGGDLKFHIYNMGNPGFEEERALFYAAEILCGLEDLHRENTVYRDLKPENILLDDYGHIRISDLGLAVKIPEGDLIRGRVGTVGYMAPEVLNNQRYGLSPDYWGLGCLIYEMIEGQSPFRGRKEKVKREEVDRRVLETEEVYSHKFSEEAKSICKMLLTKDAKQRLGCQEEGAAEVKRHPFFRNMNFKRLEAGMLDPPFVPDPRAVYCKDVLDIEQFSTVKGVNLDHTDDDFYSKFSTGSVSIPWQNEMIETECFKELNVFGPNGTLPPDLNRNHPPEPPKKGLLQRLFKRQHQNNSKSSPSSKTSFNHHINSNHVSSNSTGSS

A word on the pKd: it is −log10 of the Kd, conventionally taken in molar units. Read a low pKd as a high Kd. Take “wild-type rat calmodulin (from UniProt P0DP29 1-149) (natural protein; other documents disagree on this pair)”: the pKd was 6.56 and the dH turned out to be 4.3 kcal/mol.
